B1: Receptor-type tyrosine-protein phosphatase T (Homo sapiens), O14522-1 (parent)
chain: MASLAALALSLLLRLQLPPLPGARAQSAAGGCSFDEHYSNCGYSVALGTNGFTWEQINTWEKPMLDQAVPTGSFMMVNSSGRASGQKAHLLLPTLKENDTHCIDFHYYFSSRDRSSPGALNVYVKVNGGPQGNPVWNVSGVVTEGWVKAELAISTFWPHFYQVIFESVSLKGHPGYIAVDEVRVLAHPCRKAPHFLRLQNVEVNVGQNATFQCIAGGKWSQHDKLWLQQWNGRDTALMVTRVVNHRRFSATVSVADTAQRSVSKYRCVIRSDGGSGVSNYAELIVKEPPTPIAPPELLAVGATYLWIKPNANSIIGDGPIILKEVEYRTTTGTWAETHIVDSPNYKLWHLDPDVEYEIRVLLTRPGEGGTGPPGPPLTTRTKCADPVHGPQNVEIVDIRARQLTLQWEPFGYAVTRCHSYNLTVQYQYVFNQQQYEAEEVIQTSSHYTLRGLRPFMTIRLRLLLSNPEGRMESEELVVQTEEDVPGAVPLESIQGGPFEEKIYIQWKPPNETNGVITLYEINYKAVGSLDPSADLSSQRGKVFKLRNETHHLFVGLYPGTTYSFTIKASTAKGFGPPVTTRIATKISAPSMPEYDTDTPLNETDTTITVMLKPAQSRGAPVSVYQLVVKEERLQKSRRAADIIECFSVPVSYRNASSLDSLHYFAAELKPANLPVTQPFTVGDNKTYNGYWNPPLSPLKSYSIYFQALSKANGETKINCVRLATKAPMGSAQVTPGTPLCLLTTGASTQNSNTVEPEKQVDNTVKMAGVIAGLLMFIIILLGVMLTIKRRRNAYSYSYYLSQRKLAKKQKETQSGAQREMGPVASADKPTTKLSASRNDEGFSSSSQDVNGFTDGSRGELSQPTLTIQTHPYRTCDPVEMSYPRDQFQPAIRVADLLQHITQMKRGQGYGFKEEYEALPEGQTASWDTAKEDENRNKNRYGNIISYDHSRVRLLVLDGDPHSDYINANYIDGYHRPRHYIATQGPMQETVKDFWRMIWQENSASIVMVTNLVEVGRVKCVRYWPDDTEVYGDIKVTLIETEPLAEYVIRTFTVQKKGYHEIRELRLFHFTSWPDHGVPCYATGLLGFVRQVKFLNPPEAGPIVVHCSAGAGRTGCFIAIDTMLDMAENEGVVDIFNCVRELRAQRVNLVQTEEQYVFVHDAILEACLCGNTAIPVCEFRSLYYNISRLDPQTNSSQIKDEFQTLNIVTPRVRPEDCSIGLLPRNHDKNRSMDVLPLDRCLPFLISVDGESSNYINAALMDSHKQPAAFVVTQHPLPNTVADFWRLVFDYNCSSVVMLNEMDTAQFCMQYWPEKTSGCYGPIQVEFVSADIDEDIIHRIFRICNMARPQDGYRIVQHLQYIGWPAYRDTPPSKRSLLKVVRRLEKWQEQYDGREGRTVVHCLNGGGRSGTFCAICSVCEMIQQQNIIDVFHIVKTLRNNKSNMVETLEQYKFVYEVALEYLSSF

Variants of: B1
Settings: with stat3_human STAT3, P40763
Chain of stat3_human STAT3, P40763 (P40763 whole entry): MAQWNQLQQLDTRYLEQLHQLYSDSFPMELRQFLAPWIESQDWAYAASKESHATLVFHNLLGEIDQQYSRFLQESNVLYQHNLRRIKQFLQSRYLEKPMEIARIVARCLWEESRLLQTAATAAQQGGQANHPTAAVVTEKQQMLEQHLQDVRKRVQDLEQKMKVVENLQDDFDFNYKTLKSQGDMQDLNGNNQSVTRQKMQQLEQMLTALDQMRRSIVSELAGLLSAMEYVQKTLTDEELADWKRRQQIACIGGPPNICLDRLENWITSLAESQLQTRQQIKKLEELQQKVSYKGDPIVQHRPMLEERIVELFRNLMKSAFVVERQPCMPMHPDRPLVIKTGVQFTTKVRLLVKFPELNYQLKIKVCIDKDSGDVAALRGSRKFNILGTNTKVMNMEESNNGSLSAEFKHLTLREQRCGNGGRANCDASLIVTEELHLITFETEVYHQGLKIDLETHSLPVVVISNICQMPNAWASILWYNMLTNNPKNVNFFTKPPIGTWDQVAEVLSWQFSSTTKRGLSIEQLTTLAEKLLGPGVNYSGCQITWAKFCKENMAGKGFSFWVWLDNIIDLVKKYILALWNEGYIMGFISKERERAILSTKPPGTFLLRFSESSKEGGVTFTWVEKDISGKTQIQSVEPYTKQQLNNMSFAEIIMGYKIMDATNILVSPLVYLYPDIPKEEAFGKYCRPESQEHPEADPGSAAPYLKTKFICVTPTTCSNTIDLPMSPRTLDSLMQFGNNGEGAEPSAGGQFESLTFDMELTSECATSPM

Variant	effect of a mutation on the interaction
D1074A	increasing interaction strength
D1074A;C1106S	increasing interaction strength
